Assay results reported in patent publication US8802414B2, “Methods and materials for reducing biofilms” (priority 2007, dated 2014).

B1: Proteinase K: protease (Roche Applied Science), 100 μg/mL in 10 mM Tris-HCl pH 7.5 (protein, UniProt P06873 106-384, looked up)
Proteinase K: AAQTNAPWGLARISSTSPGTSTYYYDESAGQGSCVYVIDTGIEASHPEFEGRAQMVKTYYYSSRDGNGHGTHCAGTVGSRTYGVAKKTQLFGVKVLDDNGSGQYSTIIAGMDFVASDKNNRNCPKGVVASLSLGGGYSSSVNSAAARLQSSGVMVAVAAGNNNADARNYSPASEPSVCTVGASDRYDRRSSFSNYGSVLDIFGPGTSILSTWIGGSTRSISGTSMATPHVAGLAAYLMTLGKTTAASACRYIADTANKGDLSNIPFGTVNLLAYNNYQA
B2: heat-inactivated proteinase K: proteinase K inactivated by boiling for 40 minutes (protein, UniProt P06873 106-384, looked up)
Proteinase K: AAQTNAPWGLARISSTSPGTSTYYYDESAGQGSCVYVIDTGIEASHPEFEGRAQMVKTYYYSSRDGNGHGTHCAGTVGSRTYGVAKKTQLFGVKVLDDNGSGQYSTIIAGMDFVASDKNNRNCPKGVVASLSLGGGYSSSVNSAAARLQSSGVMVAVAAGNNNADARNYSPASEPSVCTVGASDRYDRRSSFSNYGSVLDIFGPGTSILSTWIGGSTRSISGTSMATPHVAGLAAYLMTLGKTTAASACRYIADTANKGDLSNIPFGTVNLLAYNNYQA
modifications: heat-inactivated
B3: thermolysin: protease (Sigma-Aldrich), 100 μg/mL in 10 mM Tris-HCl pH 7.5 (protein, UniProt P00800 233-548, looked up)
Thermolysin: ITGTSTVGVGRGVLGDQKNINTTYSTYYYLQDNTRGNGIFTYDAKYRTTLPGSLWADADNQFFASYDAPAVDAHYYAGVTYDYYKNVHNRLSYDGNNAAIRSSVHYSQGYNNAFWNGSQMVYGDGDGQTFIPLSGGIDVVAHELTHAVTDYTAGLIYQNESGAINEAISDIFGTLVEFYANKNPDWEIGEDVYTPGISGDSLRSMSDPAKYGDPDHYSKRYTGTQDNGGVHINSGIINKAAYLISQGGTHYGVSVVGIGRDKLGKIFYRALTQYLTPTSNFSQLRAAAVQSATDLYGSTSQEVASVKQAFDAVGVK

What was measured:
Assay in all cases: Microtiter plate biofilm detachment assay
[1] = system: pre-formed S. lugdunensis biofilms; assay type: cell-based, Staphylococcus lugdunensis; settings: 2 hours at 37° C.; safranin OD492; 15 clinical isolates
Procedure: 40 mM sodium metaperiodate (NaIO4, Sigma-Aldrich) in water, 40 μg/mL purified recombinant dispersin B (obtained from Kane Biotech Inc., Winnipeg, Manitoba, Canada) in sodium phosphate buffer (50 mM sodium phosphate (pH 5.8), 100 mM NaCl), 100 μg/mL proteinase K (Roche Applied Science) in 10 mM Tris-HCl pH 7.5, 10 U/mL trypsin (Promega Corp., Madison, Wis.) in 10 mM Tris-HCl pH 7.5, 100 μg/mL chymotrypsin (Sigma-Aldrich) in 10 mM Tris-HCl pH 7.5, and 100 μg/mL thermolysin (Sigma-Aldrich) in 10 mM Tris-HCl pH 7.5 were tested for their ability to detach pre-formed S. lugdunensis biofilms from polystyrene microtiter plate wells. For certain experiments, proteinase K was inactivated by boiling for 40 minutes.
Biofilms grown in TSBgluc1% were formed in wells of microtiter plates and washed twice with deionized water, as described above for the microtiter plate biofilm formation assay. 100 μL of NaIO4, enzyme, or suitable control was carefully added so as not to mechanically detach biofilms on the bottoms of wells. Plates were incubated at 37° C. for 2 hours, and contents of wells were discarded and washed twice with deionized water. Plates were air-dried overnight, stained with 0.1% safranin for 1 minute, and processed as described above to quantify the amount of stained biofilm remaining after treatment, relative to treatment with the control reagent. Four wells were measured for each treatment condition. Assays were repeated two or three times on separate days with similar results.

[2] = system: pre-formed biofilms of S. epidermidis RP62A; assay type: cell-based, Staphylococcus epidermidis; settings: 2 hours at 37° C.; safranin OD492
[3] = system: pre-formed biofilms of S. carnosus TM300+pCN27; assay type: cell-based, Staphylococcus carnosus; settings: 2 hours at 37° C.; safranin OD492

| Molecule | biofilm detachment compared to buffer [1] | biofilm detachment compared to buffer [2] | biofilm detachment compared to buffer [3] |
| --- | --- | --- | --- |
| B1 | completely removed | no effect | no effect |
| B2 | detachment effect was found to be abolished |  |  |
| B3 | detach S. lugdunensis biofilms selectively |  |  |
